Results reported in patent US20040081647.

Target: recombinant human TNFα (RDI) (UniProt P01375)
Sequence (P01375 77-233): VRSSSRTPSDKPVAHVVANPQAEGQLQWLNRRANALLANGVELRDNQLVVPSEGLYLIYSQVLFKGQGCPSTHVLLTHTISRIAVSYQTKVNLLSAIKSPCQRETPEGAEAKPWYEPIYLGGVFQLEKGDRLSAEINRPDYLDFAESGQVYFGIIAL

B1: MMP7 (enzyme, UniProt P09237 95-267, looked up, species assumed)
Matrilysin: YSLFPNSPKWTSKVVTYRIVSYTRDLPHITVDRLVSKALNMWGKEIPLHFRKVVWGTADIMIGFARGAHGDSYPFDGPGNTLAHAFAPGTGLGGDAHFDEDERWTDGSSLGINFLYAATHELGHSLGMGHSSDPNAVMYPTYGNGDPQNFKLSQDDIKGIQKLYGKRSNSRKK
- log reduction in TNFα activity (L929 cytotoxicity bioassay after overnight digestion): MMP7 (1.22)

B2: Cathepsin G (enzyme, UniProt P08311 21-244, looked up, species assumed)
Cathepsin G: IIGGRESRPHSRPYMAYLQIQSPAGQSRCGGFLVREDFVLTAAHCWGSNINVTLGAHNIQRRENTQQHITARRAIRHPQYNQRTIQNDIMLLQLSRRVRRNRNVNPVALPRAQEGLRPGTLCTVAGWGRVSMRRGTDTLREVQLRVQRDRQCLRIFGSYDPRRQICVGDRRERKAAFKGDSGGPLLCNNVAHGIVSYGKSSGVPPEVFTRVSSFLPWIRTTMRS
- inactivation of TNFα (L929 cytotoxicity bioassay after overnight digestion): Cathepsin G (under: Proteases that did not inactivate TNF)

B3: ADAMTS4 (enzyme, UniProt O75173 213-837, looked up, species assumed)
A disintegrin and metalloproteinase with thrombospondin motifs 4: FASLSRFVETLVVADDKMAAFHGAGLKRYLLTVMAAAAKAFKHPSIRNPVSLVVTRLVILGSGEEGPQVGPSAAQTLRSFCAWQRGLNTPEDSDPDHFDTAILFTRQDLCGVSTCDTLGMADVGTVCDPARSCAIVEDDGLQSAFTAAHELGHVFNMLHDNSKPCISLNGPLSTSRHVMAPVMAHVDPEEPWSPCSARFITDFLDNGYGHCLLDKPEAPLHLPVTFPGKDYDADRQCQLTFGPDSRHCPQLPPPCAALWCSGHLNGHAMCQTKHSPWADGTPCGPAQACMGGRCLHMDQLQDFNIPQAGGWGPWGPWGDCSRTCGGGVQFSSRDCTRPVPRNGGKYCEGRRTRFRSCNTEDCPTGSALTFREEQCAAYNHRTDLFKSFPGPMDWVPRYTGVAPQDQCKLTCQAQALGYYYVLEPRVVDGTPCSPDSSSVCVQGRCIHAGCDRIIGSKKKFDKCMVCGGDGSGCSKQSGSFRKFRYGYNNVVTIPAGATHILVRQQGNPGHRSIYLALKLPDGSYALNGEYTLMPSPTDVVLPGAVSLRYSGATAASETLSGHGPLAQPLTLQVLVAGNPQDTRLRYSFFVPRPTPSTPRPTPQDWLHRRAQILEILRRRPWAGRK
- inactivation of TNFα (L929 cytotoxicity bioassay after overnight digestion): ADAMTS4 (under: Proteases that did not inactivate TNF)
